We go through 14 molecules from US20240400711A1 (SOUND BIOPHARMACEUTICALS, published 2024).

Sequences and labels used below:
T1: mouse CD38 antigen protein (mouse, UniProt P56528 45-304, limits assumed)
T1 construct: also called mouse antigen
T1 sequence (looked up): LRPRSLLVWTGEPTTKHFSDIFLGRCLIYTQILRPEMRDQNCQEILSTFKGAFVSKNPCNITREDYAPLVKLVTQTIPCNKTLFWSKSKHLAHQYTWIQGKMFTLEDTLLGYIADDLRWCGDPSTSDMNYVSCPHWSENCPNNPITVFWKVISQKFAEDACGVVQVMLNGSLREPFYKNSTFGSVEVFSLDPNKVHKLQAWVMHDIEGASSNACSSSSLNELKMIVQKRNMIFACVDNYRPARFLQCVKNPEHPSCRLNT

T2: rat CD38 antigen protein (rat, UniProt Q64244 45-303, limits assumed)
T2 construct: also called rat antigen
T2 sequence (looked up): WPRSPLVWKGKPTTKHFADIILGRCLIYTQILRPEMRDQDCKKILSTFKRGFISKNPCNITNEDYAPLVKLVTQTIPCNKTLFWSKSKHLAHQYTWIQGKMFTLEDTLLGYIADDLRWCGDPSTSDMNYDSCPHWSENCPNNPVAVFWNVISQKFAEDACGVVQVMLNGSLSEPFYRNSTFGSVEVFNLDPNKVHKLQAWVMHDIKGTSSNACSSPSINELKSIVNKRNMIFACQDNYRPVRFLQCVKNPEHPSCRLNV

B1: H2 antibody (antibody, V domains shown)
VH: EVQLQESGAELVRSGASVKMSCKASGYTFTDYNVHWIKQTPGQGLEWIGYFYPRNGATHYNQKFTGKATLTADTSSSTAYIQISSLTSEDSAVYFCARGETPGTFPYWGQGTLVTVSA
VL: DIVLTQSPASLTVSLGQRATISCRASESVDNFGITFMHWYQQKPGQPPKLLIYRASNLESGIPARFSGSGSRTDFTLTIDPVETDDVATYYCQQSSKDPRTFGGGTKLEIK
notes: Murine monoclonal antibody from a BALB/c hybridoma; also called H2 mAb; Hybridoma-2
B2: FTL004-hu-6 (antibody, human IgG1, kappa)
heavy: not shown
light: DIQLTQSPSSLSASVGDRVTITCQASESVDNFGITFMHWYQQKPGKAPKLLIYRASNLETGVPSRFSGSGSRTDFTFTISSLQPEDIATYYCQQSSKDPRTFGQGTKLEIKRTVAAPSVFIFPPSDEQLKSGTASVVCLLNNFYPREAKVQWKVDNALQSGNSQESVTEQDSKDSTYSLSSTLTLSKADYEKHKVYACEVTHQGLSSPVTKSFNRGEC
notes: Fc before engineering; also called FLT004-hu-6; FTL004-hum-6
B3: FTL004-6 (antibody, human IgG1, kappa)
heavy: not shown
light: B2 light
B4: FTL004-hu-7 (antibody, human IgG1, kappa)
heavy: not shown
light: DIVLTQSPASLAVSPGQRATITCRASESVDNFGITFMHWYQQKPGQPPKLLIYRASNLESGVPARFSGSGSRTDFTLTINPVEANDTANYYCQQSSKDPRTFGQGTKLEIKRTVAAPSVFIFPPSDEQLKSGTASVVCLLNNFYPREAKVQWKVDNALQSGNSQESVTEQDSKDSTYSLSSTLTLSKADYEKHKVYACEVTHQGLSSPVTKSFNRGEC
notes: Fc before engineering; also called FLT004-hu-7; FTL004-hum-7
B5: FTL004-7 (antibody, human IgG1, kappa)
heavy: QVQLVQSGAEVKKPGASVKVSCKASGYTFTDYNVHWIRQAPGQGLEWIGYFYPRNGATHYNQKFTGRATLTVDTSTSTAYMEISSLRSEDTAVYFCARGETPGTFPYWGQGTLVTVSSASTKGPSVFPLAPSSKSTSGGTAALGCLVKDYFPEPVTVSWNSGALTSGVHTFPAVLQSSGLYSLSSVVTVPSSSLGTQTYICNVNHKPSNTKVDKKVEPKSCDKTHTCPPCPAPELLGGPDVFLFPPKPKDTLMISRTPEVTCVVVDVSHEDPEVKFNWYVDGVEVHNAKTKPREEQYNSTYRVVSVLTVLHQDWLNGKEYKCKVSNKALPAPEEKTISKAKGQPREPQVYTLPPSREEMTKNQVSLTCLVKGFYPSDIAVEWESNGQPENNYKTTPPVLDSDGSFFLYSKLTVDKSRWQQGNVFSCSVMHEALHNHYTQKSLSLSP
light: B4 light
notes: copies: 2 + 2
B6: FTL004-hu-1 (antibody, human IgG1, kappa)
heavy: not shown
light: B4 light
notes: human IgG1 type constant regions, Fc before engineering; also called FLT004-hu-1; FTL004-hum-1
B7: FTL004-hu-10 (antibody, human IgG1, kappa, V domains shown)
VH: QVQLVQSGAEVKKPGASVKVSCKASGYTFTDYNVHWIRQAPGQGLEWIGYFYPRNGATHYAQKFQGRVTMTVDTSTSTAYMELSSLRSEDTAVYYCARGETPGTFPYWGQGTLVTVSS
VL: EIVLTQSPATLSLSPGERATLSCRASESVDNFGITFMHWYQQKPGQAPRLLIYRASNLESGIPARFSGSGSRTDFTLTISSLEPEDFAVYYCQQSSKDPRTFGQGTKLEIKR
notes: also called FLT004-hu-10; FTL004-hum-10
B8: FTL004-hu-16 (antibody, human IgG1, kappa, V domains shown)
VH: B7 VH with Q1E, S17T, V20I, R38Q, Q43K, Q62E, M70L, V72A, S77D
VL: B7 VL
notes: also called FLT004-hu-16; FTL004-hum-16
B9: FTL004-hu-14 (antibody, human IgG1, kappa, V domains shown)
VH: B7 VH with Q1E, S17T, V20I, R38Q, Q43K, Q62E, M70L, V72A, S77D
VL: DIVLTQSPASLAVSPGQRATITCRASESVDNFGITFMHWYQQKPGQPPKLLIYRASNLESGVPARFSGSGSRTDFTLTINPVEANDTANYYCQQSSKDPRTFGQGTKLEIKR
notes: also called FLT004-hu-14; FTL004-hum-14
B10: FTL004-hu-11 (antibody, human IgG1, kappa, V domains shown)
VH: B7 VH with A61N, Q65T, V68A, M70L, L83I, Y95F
VL: DIQLTQSPSSLSASVGDRVTITCRASESVDNFGITFMHWYQQKPGKAPKLLIYRASNLESGVPSRFSGSGSRTDFTLTISSLQPEDFATYYCQQSSKDPRTFGQGTKLEIKR
notes: also called FLT004-hu-11; FTL004-hum-11
B11: FTL004-hu-5 (antibody, human IgG1, kappa, V domains shown)
VH: QVQLVQSGSELKKPGASVKVSCKASGYTFTDYNVHWIRQAPGQGLEWIGYFYPRNGATHYNQKFTGRAVLSADTSVSTAYLQISSLKAEDTAVYFCARGETPGTFPYWGQGTLVTVSS
VL: B10 VL
notes: also called FLT004-hu-5; FTL004-hum-5
B12: FTL004-hu-17 (antibody, human IgG1, kappa, V domains shown)
VH: EVQLVQSGAEVKKPGATVKISCKASGYTFTDYNVHWIQQAPGKGLEWIGYFYPRNGATHYNQKFTGRATLTADTSTDTAYMEISSLRSEDTAVYFCARGETPGTFPYWGQGTLVTVSS
VL: B10 VL
notes: also called FLT004-hu-17; FTL004-hum-17
B13: FTL004-hu-12 (antibody, human IgG1, kappa, V domains shown)
VH: B7 VH with A61N, Q65T, V68A, M70L, L83I, Y95F
VL: B10 VL with R24Q, S60T, L77F, F87I
notes: also called FLT004-hu-12; FTL004-hum-12
B14: FTL004-hu-18 (antibody, human IgG1, kappa, V domains shown)
VH: B12 VH
VL: B10 VL with R24Q, S60T, L77F, F87I
notes: also called FLT004-hu-18; FTL004-hum-18

Substitutions are numbered along the chain they refer to.

Sequence of FcγRIIIa (V176) (P08637 17-208 F176V limits assumed): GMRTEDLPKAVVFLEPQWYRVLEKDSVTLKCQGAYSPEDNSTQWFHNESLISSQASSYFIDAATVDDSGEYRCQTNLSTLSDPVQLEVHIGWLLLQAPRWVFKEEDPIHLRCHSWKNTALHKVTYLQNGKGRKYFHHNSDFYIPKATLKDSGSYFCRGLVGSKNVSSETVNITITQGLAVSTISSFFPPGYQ

One assay has as its target T3, recombinant extracellular domain of CD38 (human, UniProt P28907 43-300).
T3 construct: also called CD38 extracellular domain; AtaGenix ATMP00140HU
Description: Biacore SPR. On the technique in general: Surface plasmon resonance follows binding to a sensor surface in real time, without labels.
Consider B1, for which the Kd (in general, the concentration at which binding is half-saturated) came to 14.6 nM; the koff (usually a measure of how fast the partners let go of each other) was 0.000969 s⁻¹; the kon (in general, a measure of how fast the partners come together) turned out to be 66100 M⁻¹ s⁻¹.

The next assay concerns the target T1, mouse CD38 antigen protein. Nature of the assay: ELISA on coated mouse CD38 antigen (1 µg/mL) [panel Mouse CD38].
With B1, the binding result is reported as “no binding (tested: 300 µg/ml)”.

Another assay addresses CD38 on CD38-positive cells (human, UniProt P28907 1-300). Description: cell-based or functional assay.
With B2, the “Rate of apoptosis (%), Daudi cells” value is 29.3%; the “Rate of apoptosis (%), Raji cells” value was determined as 13.8%; the “Rate of apoptosis (%), Romas cells” value was found to be 63.6%; the “Rate of apoptosis (%), SU-DHL-6 cells” value came out at 16.8%.

Consider B3, for which the “Rate of apoptosis (%), Daudi cells” value amounted to 36%; the “Rate of apoptosis (%), Raji cells” value was determined as 13.9%; the “Rate of apoptosis (%), Romas cells” value is 57%; the “Rate of apoptosis (%), SU-DHL-6 cells” value turned out to be 15.1%.

Regarding B4, the “Rate of apoptosis (%), Daudi cells” value came to 34.5%; the “Rate of apoptosis (%), Raji cells” value was 12.1%; the “Rate of apoptosis (%), Romas cells” value is 31.1%; the “Rate of apoptosis (%), SU-DHL-6 cells” value amounted to 19.9%.

For B5, the “Rate of apoptosis (%), Daudi cells” value worked out at 37.4%; the “Rate of apoptosis (%), Raji cells” value was 17.8%; the “Rate of apoptosis (%), Romas cells” value was 60.3%; the “Rate of apoptosis (%), SU-DHL-6 cells” value was 20.3%.

Turning to B6, the “Rate of apoptosis (%), Daudi cells” value was 36.9%; the “Rate of apoptosis (%), Raji cells” value was determined as 14.8%; the “Rate of apoptosis (%), Romas cells” value was found to be 62.7%; the “Rate of apoptosis (%), SU-DHL-6 cells” value worked out at 20.2%.

The target of another assay is T2, rat CD38 antigen protein. Description: ELISA on coated rat CD38 antigen (1 µg/mL) [panel Rat CD38]. In general terms: In an ELISA, binding on a coated surface is turned into a signal by an enzyme label.
Take B1: the binding result is “no binding (tested: 300 µg/ml)”.

For another assay, the target named is T3, recombinant extracellular domain of CD38. Description: Biacore SPR. The source holds these as a separate data set.
In the case of B2, the Kd worked out at 2.44 nM, the koff was determined as 0.000677 s⁻¹ and the kon stood at 277000 M⁻¹ s⁻¹.

As for B4, the dissociation constant Kd was 2.4 nM, the koff came to 0.000766 s⁻¹ and the kon amounted to 320000 M⁻¹ s⁻¹.

As for B6, the Kd was 1.42 nM.

B7: the Kd was 14.9 nM, the koff is 0.00241 s⁻¹ and the kon came to 162000 M⁻¹ s⁻¹.

On to B8, for which the Kd turned out to be 25.2 nM, the koff was 0.00459 s⁻¹ and the kon was found to be 182000 M⁻¹ s⁻¹.

As for B9, the Kd turned out to be 22.4 nM, the koff was 0.00466 s⁻¹ and the kon was 208000 M⁻¹ s⁻¹.

On to B10, for which the Kd came out at 2.87 nM, the koff worked out at 0.000848 s⁻¹ and the kon turned out to be 296000 M⁻¹ s⁻¹.

As to B11, the Kd is 1.65 nM, the koff is 0.000686 s⁻¹ and the kon was determined as 415000 M⁻¹ s⁻¹.

For the molecule B12, the Kd stood at 3.09 nM, the koff came to 0.000848 s⁻¹ and the kon came to 275000 M⁻¹ s⁻¹.

For B13, the Kd worked out at 3.54 nM, the koff was 0.00083 s⁻¹ and the on-rate (kon) stood at 234000 M⁻¹ s⁻¹.

Turning to B14, the Kd is 4.16 nM, the koff worked out at 0.000788 s⁻¹ and the kon is 189000 M⁻¹ s⁻¹.

As for B1, the Kd is 2.02 nM, the koff was found to be 0.0005 s⁻¹ and the kon was 248000 M⁻¹ s⁻¹.

The target of the next assay is T4, human CD38 antigen protein (coated in ELISA) (human, UniProt P28907 43-300, limits assumed).
T4 construct: also called the antigen CD38; human antigen
Nature of the assay: ELISA on coated CD38 antigen, OD (450 nm) against antibody concentration (ng/ml) [Plate3].
On to B7, for which the EC50 (read off the curve) (in general, the concentration needed to bring the measured effect to its halfway point) is about 0.3 µg/mL.

Regarding B9, the “EC50 (read off the curve)” value was about 0.5 µg/mL.

For another assay, the target named is FcγRIIIa(F176) (UniProt P08637 17-208, limits assumed). Nature of the assay: kinetics, FcγRIIIa as ligand, antibody as analyte.
Sequence of FcγRIIIa(F176) (P08637 17-208 limits assumed): as the sequence (P08637 17-208 F176V limits assumed) above, with V160F counted along it
Take B5: binding was characterised by a dissociation constant (Kd) of 22.7 nM, the koff is 0.0136 s⁻¹ and the kon came out at 599000 M⁻¹ s⁻¹.

Another assay has as its target FcγRIIIa (V176) (UniProt P08637 17-208, limits assumed). Nature of the assay: kinetics, FcγRIIIa as ligand, antibody as analyte.
Turning to B5, the Kd was determined as 36.9 nM, the koff came out at 0.021 s⁻¹ and the kon was found to be 570000 M⁻¹ s⁻¹.
